Our source for the OD450 values is patent publication US20250320312A1 (OXITOPE PHARMA B V, published 2025).

What all share (assay): scFv ELISA
(An ELISA detects its analyte on a solid surface through an enzyme-linked reagent.)

In test [1] the target is Peptide 5: Biotin-…-[Tyr(PC)]-acid.
A further test deals with BSA (UniProt P02769).
Test [2] addresses Peptide 1: Biotin-…-[Tyr(PC)]-acid.
Test [3] addresses T1, Peptide 4: Biotin-AGGGGSGGGGSGGGGSAAA-Tyr-acid (N-terminal biotin; C-terminal acid).
T1 construct: Control peptide without PC
T1 peptide: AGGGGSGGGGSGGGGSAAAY
The method in brief:
(§1)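 Bound scFv was read as OD450 after HRP–anti-V5 detection, TMB development and HCl stop. PPE with BSA was incubated 1 h at RT on BSA-blocked wells coated overnight at 4° C. with peptide, or on streptavidin wells loaded 1 h with biotinylated PC-peptides at 1 μg/mL.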

Test [4] deals with T2, Peptide 8: Biotin-AEAAAKEAAAKEAAAKEAAAKAAA-Tyr-acid (N-terminal biotin; C-terminal acid).
T2 construct: Control peptide without PC
T2 peptide: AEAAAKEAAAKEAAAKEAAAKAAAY
The gist of the method: as §1

Chain of BSA (P02769 25-607 limits assumed): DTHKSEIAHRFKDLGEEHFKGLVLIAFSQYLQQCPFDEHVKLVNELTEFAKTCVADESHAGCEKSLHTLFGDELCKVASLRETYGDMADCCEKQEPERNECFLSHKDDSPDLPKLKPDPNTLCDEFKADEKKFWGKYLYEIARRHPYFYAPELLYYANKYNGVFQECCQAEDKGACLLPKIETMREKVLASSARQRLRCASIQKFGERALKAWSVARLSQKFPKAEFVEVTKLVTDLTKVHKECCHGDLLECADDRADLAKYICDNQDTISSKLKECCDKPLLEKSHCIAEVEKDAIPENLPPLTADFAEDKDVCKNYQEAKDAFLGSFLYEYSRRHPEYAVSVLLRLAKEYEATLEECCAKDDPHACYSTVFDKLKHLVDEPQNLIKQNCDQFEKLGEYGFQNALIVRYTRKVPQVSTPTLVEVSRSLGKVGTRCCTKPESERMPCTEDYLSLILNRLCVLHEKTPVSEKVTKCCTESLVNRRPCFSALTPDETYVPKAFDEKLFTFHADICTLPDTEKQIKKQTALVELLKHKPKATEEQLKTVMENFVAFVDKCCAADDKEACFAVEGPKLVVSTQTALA

B1: PcOxP_DB04_B11 (scFv, V domains shown)
VH: EVQLLESGGGLVQPGGSLRLSCAASGDTFSDFYMEWVRQAPGKGLEWVAASRWKANDYTTEYADSVKGRFTISRDNSKNTLYLQMNSLRAEDTAVYYCARDYYGSSYWYFDVWGQGTLVTVSS
VL: DIVMTQSPDSLAVSLGERATINCTASESLYSSKHKVHYLAWYQQKPGQPPKLLIYGASNRYIGVPDRFSGSGSGTDFTLTISSLQAEDVAVYYCAQFYSYPLTFGGGTKVEIK
notes: scFv in periplasmic extract
With B1, the OD450 amounted to 0.31 OD450 in test [1]; 0.08 OD450 with BSA; 0.26 OD450 in test [2]; 0.05 OD450 in test [3]; 0.05 OD450 in test [4].

B2: PcOxP_DB04_C10 (scFv, V domains shown)
VH: EVQLLESGGGLVQPGGSLRLSCAASGFTFSDGYMEWVRQAPGKGLEWVAAIRNKANDYTTEYADSVKGRFTISRDNSKNTLYLQMNSLRAEDTAVYYCARDYYGSHYWYFDVWGQGTLVTVSS
VL: DIVMTQSPDSLAVSLGERATINCTASESLYSSKHKVHYLAWYQQKPGQPPKLLIYGASNRYIGVPDRFSGSGSGTDFTLTISSLQAEDVAVYYCAQFYSYPLTFGGGTKVEIK
notes: scFv in periplasmic extract
B2: the OD450 was 1.03 OD450 in test [1]; 0.08 OD450 with BSA; 0.54 OD450 in test [2]; 0.06 OD450 in test [3]; 0.05 OD450 in test [4].

B3: PcOxP_DB04_B12 (scFv, V domains shown)
VH: EVQLLESGGGLVQPGGSLRLSCAASGFTFSDYYMEWVRQAPGKGLEWVAASRNKANDYTTEYADSVKGRFTISRDNSKNTLYLQMNSLRAEDTAVYYCARDYYGSSYWYFDVWGQGTLVTVSS
VL: DIVMTQSPDSLAVSLGERATINCTASESLYSSKHKVHYLAWYQQKPGQPPKLLIYGASNRYIGVPDRFSGSGSGTDFTLTISSLQAEDVAVYYCAAFYSYPLTFGGGTKVEIK
notes: scFv in periplasmic extract
As for B3, the OD450 in test [1] was 0.34 OD450; with BSA, 0.09 OD450; in test [2], 0.13 OD450; in test [3], 0.04 OD450; in test [4] it was 0.04 OD450.

B4: PcOxP_DB04_D01 (scFv, V domains shown)
VH: EVQLLESGGGLVQPGGSLRLSCAASGFTFSDYYMEWVRQAPGKGLEWVAASRNKGNDYTTAYADSVKGRFTISRDNSKNTLYLQMNSLRAEDTAVYYCARDYYGSSYWYFDVWGQGTLVTVSS
VL: DIVMTQSPDSLAVSLGERATINCTASESLYSSKHKVHYLAWYQQKPGQPPKLLIYGASQRYIGVPDRFSGSGSGTDFTLTISSLQAEDVAVYYCAQFYSYPLTFGGGTKVEIK
notes: scFv in periplasmic extract
On to B4, for which the OD450 in test [1] was 1.66 OD450; in the test with BSA, 0.07 OD450; in test [2], 1.23 OD450; in test [3] it was 0.06 OD450; in test [4], 0.06 OD450.

B5: PcOxP_DB04_C09 (scFv, V domains shown)
VH: EVQLLESGGGLVQPGGSLRLSCAASGFTFSSYYMEWVRQAPGKGLEWVAASRNKANDYTTEYADSVKGRFTISRDNSKNTLYLQMNSLRAEDTAVYYCARDYYLSSYWYFDVWGQGTLVTVSS
VL: DIVMTQSPDSLAVSLGERATINCTASESLYSPKHKVHYLAWYQQKPGQPPKLLIYGAENRYIGVPDRFSGSGSGTDFTLTISSLQAEDVAVYYCAQFYSYPLTFGGGTKVEIK
notes: scFv in periplasmic extract
Regarding B5, the OD450 in test [1] was determined as 1.21 OD450; in the test with BSA it was 0.11 OD450; in test [2], 0.55 OD450; in test [3], 0.07 OD450; in test [4], 0.06 OD450.

B6: PcOxP_DB04_C11 (scFv, V domains shown)
VH: EVQLLESGGGLVQPGGSLRLSCAASGFTFSDYYMEWVRQAPGKGLEWVAASRNKANDYTTEYADSVKGRFTISRDNSKNTLYLQMNSLRAEDTAVYYCARDYYGSSYWYFDVWGQGTLVTVSS
VL: DIVMTQSPDSLAVSLGERATINCTASESLYSSKHKVHYLAWYQQKPGQPPKLLIYGASHRQIGVPDRFSGSGSGTDFTLTISSLQAEDVAVYYCAQFYSYPLTFGGGTKVEIK
notes: scFv in periplasmic extract
On to B6, for which the OD450 turned out to be 1.34 OD450 in test [1]; 0.07 OD450 with BSA; 0.81 OD450 in test [2]; 0.05 OD450 in test [3]; 0.04 OD450 in test [4].
